Assay results reported in PMC7050210 (Nature, 2020).
Like-named read-outs stand apart in the source and are kept apart here. Non-standard residues stand in square brackets, D forms with d. No end group written: not given here. pS = N[C@@H](COP(=O)(O)O)C(=O)O

What was measured:
[1] = molecular target: T1, β-TRCP1 (monomeric form, from residue 175 to C-terminus) (human, UniProt Q9Y297 175-605); experiment: cryo-EM structure
T1 sequence: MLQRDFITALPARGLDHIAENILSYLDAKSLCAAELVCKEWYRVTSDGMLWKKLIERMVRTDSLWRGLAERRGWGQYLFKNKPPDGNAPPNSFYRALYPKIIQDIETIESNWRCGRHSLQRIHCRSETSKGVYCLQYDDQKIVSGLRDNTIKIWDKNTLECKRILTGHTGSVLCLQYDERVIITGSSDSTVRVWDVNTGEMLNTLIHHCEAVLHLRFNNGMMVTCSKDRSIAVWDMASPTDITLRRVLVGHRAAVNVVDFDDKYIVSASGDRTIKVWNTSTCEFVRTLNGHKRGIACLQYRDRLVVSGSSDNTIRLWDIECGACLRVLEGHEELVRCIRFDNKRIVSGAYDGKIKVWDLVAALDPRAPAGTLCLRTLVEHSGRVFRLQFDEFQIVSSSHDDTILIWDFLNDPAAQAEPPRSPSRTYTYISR

[2] = molecular target: T1, β-TRCP1 (monomeric form, from residue …); experiment: cryo-EM structure; remark: listed apart in the source

Binder | binding result [1] | binding result [2]
KKERLLDDRHD[pS]GLD[pS]MKDEE [IκBα-derived phosphopeptide KKERLLDDRHD(pS)GLD(pS)MKDEE] | binds | –
CKKERLLDDRHDSGLDSMKDEE [IκBα-derived substrate peptide with N-terminal Cys (cryo EM peptide)] | – | binds
